rMFI OX/EV, 10ug/ml, cHIDE1 (CR) data for three molecules are collected here from patent publication US20180305451A1.

Sequences and labels used below:
B1: αhHIDE1_AbD25754_hIgG1_Ser_mAb (antibody, V domains shown)
VH: QVQLVQSGAEVKKPGASVKVSCKASGYTFSGYGMHWVRQAPGQGLEWMGIISPSNGNTNYAQKFQGRVTMTRDTSISTAYMELSRLRSEDTAVYYCAREVYYGLDVWGQGTLVTVSS
VL: DIQMTQSPSSLSASVGDRVTITCRASQSISSWLNWYQQKPGKAPQLLIYGASSLQSGVPSRFSGSGSGTDFTLTISSLQPEDFATYYCQQYISIPITFGQGTKVEIK
B2: αhHIDE1_AbD25760_hIgG1_Ser_mAb (antibody, V domains shown)
VH: QVQLVQSGAEVKKPGSSVKVSCKASGGTFSDYAINWVRQAPGQGLEWMGGIIPNFGTANYAQKFQGRVTITADESTSTAYMELSSLRSEDTAVYYCARGMRSLGGLSYYFDLWGQGTLVTVSS
VL: DIQMTQSPSSLSASVGDRVTITCRASQSINSYLNWYQQKPGKAPKLLIYAASSLQSGVPSRFSGSGSGTDFTLTISSLQPEDFATYYCQQYIHYPITFGQGTKVEIK
B3: αhHIDE1_AbD25755_hIgG1_Ser_mAb (antibody, V domains shown)
VH: QVQLVQSGAEVKKPGSSVKVSCKASGGTFSSYAISWVRQAPGQGLEWMGGIVPKFGTAYYAQKFQGRVTITADESTSTAYMELSSLRSEDTAVYYCARENLVYSAIAIWGQGTLVTVSS
VL: DIQMTQSPSSLSASVGDRVTITCRASQDISNWLNWYQQKPGKAPKLLIYGASSLQSGVPSRFSGSGSGTDFTLTISSLQPEDFATYYCQQVTSTPFTFGQGTKVEIK

In the experiment the target is cyno HIDE1 (cyno). Put plainly: FACS, Geo mean ratio of HEK293 cells over-expressing cyno HIDE1 to HEK293 empty vector, antibody 10 ug/ml. (In general: A flow cytometer gives signals particle by particle.)
Chain of cyno HIDE1 (cyno) (chain, as listed by the source limits assumed, form in doubt): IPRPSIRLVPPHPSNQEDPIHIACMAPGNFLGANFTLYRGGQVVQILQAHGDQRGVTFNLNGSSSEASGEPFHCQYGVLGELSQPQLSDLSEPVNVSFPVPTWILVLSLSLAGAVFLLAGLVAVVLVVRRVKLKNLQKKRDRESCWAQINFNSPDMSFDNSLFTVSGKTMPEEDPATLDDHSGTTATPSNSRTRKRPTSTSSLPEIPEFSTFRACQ
As for B1, the rMFI OX/EV, 10ug/ml, cHIDE1 (CR) worked out at 353.

Regarding B2, the rMFI OX/EV, 10ug/ml, cHIDE1 (CR) was found to be 132.

Regarding B3, the rMFI OX/EV, 10ug/ml, cHIDE1 (CR) was determined as 328.
